Assay results taken from patent US20250243289A1 (PROMETHEUS BIOSCIENCES, published 2025).
Several values for one entry are separate records, joined by “and”; a condition that tells them apart may be missing. Equal entries are not always repeated.

Tests used:
recombinant TL1A antigen = biological target: T1, recombinant TL1A antigen (UniProt O95150 72-251, limits assumed); test: ELISA titration against recombinant TL1A antigen
T1 sequence (looked up): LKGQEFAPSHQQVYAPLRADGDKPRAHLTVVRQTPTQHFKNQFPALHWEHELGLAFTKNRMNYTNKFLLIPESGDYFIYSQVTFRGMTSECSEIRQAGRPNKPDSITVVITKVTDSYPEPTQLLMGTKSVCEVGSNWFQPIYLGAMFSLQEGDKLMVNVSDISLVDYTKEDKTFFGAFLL

[1] = biological target: monkey TL1A in the in vitro monkey whole blood IFN-γ assay (monkey); test: cell-based or functional assay
[2] = biological target: T2, recombinant cynomolgus monkey TL1A protein (cynomolgus monkey, UniProt G7PRK8 72-251); test: cell-based or functional assay
T2 sequence: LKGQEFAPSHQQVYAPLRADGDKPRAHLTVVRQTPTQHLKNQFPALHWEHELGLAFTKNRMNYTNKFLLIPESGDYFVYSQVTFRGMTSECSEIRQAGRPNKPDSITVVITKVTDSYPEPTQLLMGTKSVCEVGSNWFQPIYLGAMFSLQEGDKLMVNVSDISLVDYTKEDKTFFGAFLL

[3] = biological target: T3, recombinant human TL1A protein (tumor necrosis factor-like cytokine 1A) (human, UniProt O95150 72-251); test: cell-based or functional assay
T3 sequence (looked up): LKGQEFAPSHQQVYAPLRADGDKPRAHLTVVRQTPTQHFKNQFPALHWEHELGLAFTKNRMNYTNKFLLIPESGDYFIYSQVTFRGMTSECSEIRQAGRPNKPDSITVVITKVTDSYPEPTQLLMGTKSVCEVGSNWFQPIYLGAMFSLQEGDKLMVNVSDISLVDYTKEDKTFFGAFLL

[4] = biological target: T4, human TL1A, endogenous in human whole blood (human, UniProt O95150 72-251, limits assumed); test: cell-based or functional assay
T4 sequence (looked up): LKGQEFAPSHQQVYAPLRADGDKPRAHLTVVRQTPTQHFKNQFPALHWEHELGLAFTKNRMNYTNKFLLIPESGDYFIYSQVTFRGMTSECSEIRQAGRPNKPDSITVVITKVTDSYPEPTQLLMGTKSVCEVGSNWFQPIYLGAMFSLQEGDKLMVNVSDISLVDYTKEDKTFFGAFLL

B1: anti-TL1A antibody with heavy chain SEQ ID NO: 379 (S228P, L235E) and light chain SEQ ID NO: 381 (antibody, human IgG4 S228P, kappa)
heavy: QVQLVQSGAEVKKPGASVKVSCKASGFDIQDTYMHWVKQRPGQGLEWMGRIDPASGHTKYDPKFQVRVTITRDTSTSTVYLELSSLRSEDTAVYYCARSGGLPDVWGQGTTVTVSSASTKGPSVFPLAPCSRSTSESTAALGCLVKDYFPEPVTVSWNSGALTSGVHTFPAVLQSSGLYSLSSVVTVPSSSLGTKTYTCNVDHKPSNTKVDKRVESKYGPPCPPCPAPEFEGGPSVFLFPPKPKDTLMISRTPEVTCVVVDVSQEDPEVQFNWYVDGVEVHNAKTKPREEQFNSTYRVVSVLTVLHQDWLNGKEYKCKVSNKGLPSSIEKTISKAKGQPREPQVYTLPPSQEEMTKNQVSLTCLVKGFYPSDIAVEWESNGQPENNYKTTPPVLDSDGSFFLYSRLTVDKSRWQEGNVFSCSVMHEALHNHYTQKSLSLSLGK
light: EIVLTQSPGTLSLSPGERATLSCRASSSVSYMYWYQQKPGQAPRPLIYATSNLASGIPDRFSGSGSGTDFTLTISRLEPEDFAVYYCQQWEGNPRTFGGGTKLEIKRTVAAPSVFIFPPSDEQLKSGTASVVCLLNNFYPREAKVQWKVDNALQSGNSQESVTEQDSKDSTYSLSSTLTLSKADYEKHKVYACEVTHQGLSSPVTKSFNRGEC
notes: IgG4
For B1, the EC50 (recombinant TL1A antigen) was 0.324 nM.

B2: anti-TL1A antibody A219 (antibody, V domains shown)
VH: QVQLVQSGAEVKKPGASVKVSCKASGFDIQDTYMHWVKQRPGQGLEWMGRIDPASGHTKYDPKFQVRVTITRDTSTSTVYLELSSLRSEDTAVYYCARSGGLPDVWGQGTTVTVSS
VL: EIVLTQSPGTLSLSPGERATLSCRASSSVSYMYWYQQKPGQAPRPLIYATSNLASGIPDRFSGSGSGTDFTLTISRLEPEDFAVYYCQQWEGNPRTFGGGTKLEIK
For B2, the “IC50 of the in vitro monkey whole blood IFN-γ release assay” value [1] was 1.54 nM and 289 ng/mL, the “inhibition of monkey TL1A-induced caspase activation in TF-1 cells (IC50)” value [2] was 0.59 nM and the “inhibition of the IFN-γ response in monkey whole blood stimulated with immune complex, IL-12 and IL-18 (mean IC50)” value [2] was 1.54 nM and 289 ng/ml. The “inhibition of human TL1A-induced caspase activation in TF-1 cells (IC50)” value [3] was 0.27 nM.

B3: A147 (antibody, human IgG1, V domains shown)
VH: QVQLVQSGAEVKKPGASVKVSCKASGFDIQDTYMHWVKQRPGQGLEWMGRIEPASGHIKYDPKFQGRVTMTRDTSTSTVYMELSSLRSEDTAVYYCARSGGLPDWWGQGTTVTVSS
VL: EIVLTQSPGTLSLSPGERATLSCRASSSVSYMYWYQQKPGQAPRPLIYATSNLASGIPDRFSGSGSGTDFTLTISRLEPEDFAVYYCQQWEGNPRTFGGGTKLEIK
For B3, the “% Inhibition at 1 nM Ig (interferon gamma release in human blood)” value (from here on “% Inhibition at 1 nM Ig”) [4] was 51.3% and the “% Inhibition at 10 nM Ig (interferon gamma release in human blood)” value (shortened to “% Inhibition at 10 nM Ig”) [4] was 72.4%.

B4: A212 (antibody, human IgG1, V domains shown)
VH: QVQLVQSGAEVKKPGASVKVSCKASGFDIQDTYMHWVRQRPGQGLEWIGRIDPASGHTKYDPKFQVRATITTDTSTSTAYLELSSLRSEDTAVYYCARSGGLPDVWGQGTTVTVSS
VL: EIVLTQSPGTLSLSPGERATLSCRASSSVSYMYWYQQKPGQAPRPLIYATSNLASGIPDRFSGSGSGTDFTLTISRLEPEDFAVYYCQQWEGNPRTFGGGTKLEIK
With B4 the “% Inhibition at 1 nM Ig” value [4] was 46.8% and the “% Inhibition at 10 nM Ig” value [4] was 71.2%.

B5: A219 (antibody, V domains shown)
VH: QVQLVQSGAEVKKPGASVKVSCKASGFDIQDTYMHWVKQRPGQGLEWMGRIDPASGHTKYDPKFQVRVTITRDTSTSTVYLELSSLRSEDTAVYYCARSGGLPDVWGQGTTVTVSS
VL: EIVLTQSPGTLSLSPGERATLSCRASSSVSYMYWYQQKPGQAPRPLIYATSNLASGIPDRFSGSGSGTDFTLTISRLEPEDFAVYYCQQWEGNPRTFGGGTKLEIK
With B5 the “% Inhibition at 1 nM Ig” value [4] was 59.8% and the “% Inhibition at 10 nM Ig” value [4] was 75.2%.

B6: A217 (antibody, human IgG1, V domains shown)
VH: QVQLVQSGAEVKKPGASVKVSCKASGFDIQDTYMHWVKQRPGQGLEWMGRIDPASGHTKYDPKFQVRVTITRDTSTSTVYMELSSLRSEDTAVYYCARSGGLPDVWGQGTTVTVSS
VL: EIVLTQSPGTLSLSPGERATLSCRASSSVSYMYWYQQKPGQAPRPLIYATSNLASGIPDRFSGSGSGTDFTLTISRLEPEDFAVYYCQQWEGNPRTFGGGTKLEIK
With B6 the “% Inhibition at 1 nM Ig” value [4] was 46% and the “% Inhibition at 10 nM Ig” value [4] was 72.2%.

B7: A213 (antibody, human IgG1, V domains shown)
VH: QVQLVQSGAEVKKPGASVKVSCKASGFDIQDTYMHWVRQRPGQGLEWMGRIDPASGHTKYDPKFQVRVTITTDTSTSTVYMELSSLRSEDTAVYYCARSGGLPDVWGQGTTVTVSS
VL: EIVLTQSPGTLSLSPGERATLSCRASSSVSYMYWYQQKPGQAPRPLIYATSNLASGIPDRFSGSGSGTDFTLTISRLEPEDFAVYYCQQWEGNPRTFGGGTKLEIK
In the case of B7, the “% Inhibition at 1 nM Ig” value [4] is reported as 48.6% and the “% Inhibition at 10 nM Ig” value [4] is reported as 69.8%.

B8: A220 (antibody, human IgG1, V domains shown)
VH: QVQLVQSGAEVKKPGASVKVSCKASGFDIQDTYMHWVKQRPGQGLEWMGRIDPASGHTKYDPKFQVRVTMTRDTSTSTAYLELSSLRSEDTAVYYCARSGGLPDVWGQGTTVTVSS
VL: EIVLTQSPGTLSLSPGERATLSCRASSSVSYMYWYQQKPGQAPRPWIYATSNLASGIPDRFSGSGSGTDFTLTISRLEPEDFAVYYCQQWEGNPRTFGGGTKLEIK
B8 was tested, and the “% Inhibition at 1 nM Ig” value [4] was 36.9% and the “% Inhibition at 10 nM Ig” value [4] was 63.2%.
